Tests used:
Aβ1-42 aggregates = Aβ1-42 aggregates (Homo sapiens, UniProt P05067); experiment: biochemical
Protocol: Dissolving Aβ1-42 solid in PBS (PH 7.4) at a concentration of 0.25 mg/ml (55.38 uM), incubating in 37° C. water bath on a shaker for 42 h.
Preparing solutions (containing 10% DMF), containing the conjugate formed by angiopep-2 and FITC (10 uM) as well as Aβ1-42 aggregates (0, 5, 10 uM) or BSA (45 ug/mL), respectively; incubating the mixture solution at 37° C. for 30 minutes.
Preparing solutions (containing 10% DMF), containing the conjugate formed by angiopep-2 and FITC (0-3.75 uM) as well as Aβ1-42 aggregates (2.2 uM) or BSA (10 uM), respectively, incubating the mixture solution at 37° C. for 30 minutes.
Detecting the mixture solutions prepared above for their emission spectrum with fluorescence spectrophotometer, emission wavelength: 333 nm, maximum emission wavelength: 531 nm, in the range of 500-600 nm.
Plotting by using GraphPad Prism 5.0 (GraphPad Software, Inc., La Jolla, Calif., USA) and calculating equilibrium dissociation constant.

[1] = tested on: APP transgenic mice's brains; experiment: In vivo near-infrared imaging of APP transgenic mouse after intravenous injection; conditions: 13 mg/kg intravenous injection
Protocol: (§1) Optical in vivo imaging study was performed on IVIS imaging system, an optical imaging system from Caliper Life Sciences for imaging living body with an excitation filter set as Cy5.5, and emission spectrum band-pass filter as 640 nm. Before imaging, the mice were anaesthetized with a mixture gas of isoflurane and oxygen, and placed on an imaging plate with its face downward. White light photography (exposure time: 0.2 s) and near-infrared fluorescent imaging (exposure time: 5 s) were performed under the same field of vision (FOV) (FOV=12.5 cm, f/stop=1, Bin=1) at time points including before injection and several selected time points after intravenous injection. Each mouse received an injection dose of 13 mg/kg. White light photographs and near-infrared fluorescent images were superimposed to determine the size of intracranial portion. Finally, the imaging views were processed by using Living Image Software (Caliper Life Sciences).

[2] = tested on: amyloid deposits in APP transgenic mouse brain; experiment: Fluorescent microscopy of APP transgenic mouse's brain sections after intravenous injection of the Cy5.5 conjugate; type: in vivo; conditions: 13 mg/kg intravenous, brain removed after 30 minutes
Protocol: 30 minutes after intravenous administration (13 mg/kg), the mice were sacrificed, and then their brains were removed and frozen in liquid nitrogen. […] The brain was cut into sections of about 25 m in thickness using a frozen tissue microtome (Lecia CM1950). The sections were then placed on a fluorescent microscope (IX8, OLYMPUS) for observation and photography.

[3] = tested on: APP transgenic mice's brains; conditions: mouse, in vivo
Protocol: as §1

amyloid deposits in APP transgenic mouse brain, sequence (P05067 672-711 limits assumed): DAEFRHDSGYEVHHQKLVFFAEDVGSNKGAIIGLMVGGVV
Aβ1-42 aggregates, sequence (P05067 672-713 limits assumed): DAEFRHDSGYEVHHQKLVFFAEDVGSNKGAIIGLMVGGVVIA

## C[C@@H](O)[C@H](NC(=O)CCCCCNC(=S)Nc1ccc2c(c1)C(=O)OC21c2ccc(O)cc2Oc2cc(O)ccc21)C(=O)N[C@@H](Cc1ccccc1)C(=O)N[C@@H](Cc1ccccc1)C(=O)N[C@@H](Cc1ccc(O)cc1)C(=O)NCC(=O)NCC(=O)N[C@@H](CO)C(=O)N[C@@H](CCCNC(=N)N)C(=O)NCC(=O)N[C@@H](CCCCN)C(=O)N[C@@H](CCCNC(=N)N)C(=O)N[C@@H](CC(N)=O)C(=O)N[C@@H](CC(N)=O)C(=O)N[C@@H](Cc1ccccc1)C(=O)N[C@@H](CCCCN)C(=O)N[C@H](C(=O)N[C@@H](CCC(=O)O)C(=O)N[C@@H](CCC(=O)O)C(=O)N[C@@H](Cc1ccc(O)cc1)C(=O)O)[C@@H](C)O [conjugate formed by angiopep-2 and FITC]
Aβ1-42 aggregates
  Kd: 676 nM
[1]; APP transgenic mice
  passing through BBB and aggregation in brain in vivo: can pass through BBB and aggregate in APP transgenic mice's brains in vivo

## conjugate formed by angiopep-2 and Cy5.5: angiopep-2 (TFFYGGSRGKRNNFKTEEY) linked N-terminally via Acp to Cy5.5; near-infrared imaging conjugate, MW 2880.24 Da
[2]
  labeling of amyloid deposits in brain in vivo: can bind to and label the amyloid deposits
[3]
  time after which cleared from brain: 20 h
[1]; APP mice
  aggregation in brain (near-infrared imaging): aggregated in APP mice's brains
